Assay results as given in FireProtDB (doi:10.1002/pro.342).

B1: Regulatory protein rop, P03051 (parent)
chain: MTKQEKTALNMARFIRSQTLTLLEKLNELDADEQADICESLHDHADELYRSCLARFGDDGENL

Variants of: B1
Conditions: Escherichia coli, pH 6.3, CD, Phosphate 50 mM, NaCl 300 mM, structure 1ROP, whole UniProt chain shown; for Tm / change of melting temperature, mutant - wild type (higher = more stable) / heat capacity change of unfolding / unfolding enthalpy (van 't Hoff): Thermal

Variant | Tm [°C] | change of melting temperature, mutant - wild type (higher = more stable) [°C] | heat capacity change of unfolding [kcal/mol/K] | unfolding enthalpy (van 't Hoff) [kcal/mol] | denaturant m value (Urea) [kcal/mol/M] | denaturant midpoint (higher = more stable) (Urea) [M] | unfolding free energy (Urea) [kcal/mol] | ddG of mutation (higher = less stable) (Urea) [kcal/mol]
C38A C52V | 74 | 4 | 1.1 | 65 | 1.3 | 4.1 | 11 | –
C38A C52A | 56 | -14 | 1.1 | 65 | 0.9 | 2.3 | 7.7 | 8.3
